Experiments:
[1] = target: CD16A endogenously expressed on primary human NK cells (human) (UniProt P08637); assay: flow cytometry on primary human NK cells, biotinylated antibody, 37 C, with 10 mg/mL polyclonal human IgG as competitor, mean of 4
[2] = target: human CD16A-mFc (158V) (sAg_149) (human) (UniProt P08637); assay: ELISA on coated human CD16A-mFc (158V), anti-mouse HRP detection
[3] = target: CD16A endogenously expressed on primary human NK cells (human) (UniProt P08637); assay: flow cytometry on primary human NK cells, biotinylated antibody, 37 C, without IgG, mean of 4
[4] = target: human CD16A-mFc (158F) (sAg_107) (human) (UniProt P08637); assay: ELISA, plate coated with human CD16A-mFc (158F), one-site fit, mean of 3
[5] = target: human CD16A-mFc (158F) (sAg_107) (human) (UniProt P08637); assay: ELISA on coated human CD16A-mFc (158F), anti-mouse HRP detection
[6] = target: CD16A endogenously expressed on primary human NK cells (human) (UniProt P08637); assay: flow cytometry on primary human NK cells, 37 °C, biotinylated antibody, streptavidin-FITC, without polyclonal human IgG
[7] = target: recombinant murine FcγRIIB (CD32), biotinylated (murine) (UniProt P08101); assay: SPR (Biacore T200), 37 C, biotin-captured receptor, steady-state affinity
[8] = target: recombinant human FcγRIIA (CD32A), biotinylated (human) (UniProt P12318); assay: as above
[9] = target: recombinant human FcγRIIC (CD32C), biotinylated (human) (UniProt P31995); assay: SPR (Biacore), 37 °C, biotin-captured human CD32C as ligand, steady-state affinity fit
[10] = target: recombinant human FcγRIIB (CD32B), biotinylated (human) (UniProt P31994); assay: SPR (Biacore), 37 °C, biotin-captured human CD32B as ligand, steady-state affinity fit
[11] = target: recombinant cynomolgus FcγRIIA (CD32A), biotinylated (cynomolgus); assay: SPR (Biacore), 37 °C, biotin-captured cynomolgus CD32A as ligand, steady-state affinity fit
[12] = target: recombinant cynomolgus FcγRIIB/C (CD32B/C), biotinylated (cynomolgus); assay: SPR (Biacore), 37 °C, biotin-captured cynomolgus CD32B/C as ligand, steady-state affinity fit

Chain of control antibody MOR208 (anti-CD19 human IgG1 Fc enhanced) (HC): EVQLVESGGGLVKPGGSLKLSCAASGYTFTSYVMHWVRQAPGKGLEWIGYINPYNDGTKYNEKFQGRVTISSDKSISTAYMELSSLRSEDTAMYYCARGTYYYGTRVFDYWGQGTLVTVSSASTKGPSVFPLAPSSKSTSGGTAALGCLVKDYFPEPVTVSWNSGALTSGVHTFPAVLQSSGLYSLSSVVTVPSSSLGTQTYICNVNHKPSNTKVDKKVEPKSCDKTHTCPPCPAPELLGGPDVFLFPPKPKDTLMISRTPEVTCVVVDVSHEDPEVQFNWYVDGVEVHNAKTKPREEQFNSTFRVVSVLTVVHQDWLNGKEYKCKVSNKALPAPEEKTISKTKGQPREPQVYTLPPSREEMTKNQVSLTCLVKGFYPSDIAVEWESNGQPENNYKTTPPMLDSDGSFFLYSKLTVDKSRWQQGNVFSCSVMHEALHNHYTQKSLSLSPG
Chain of control antibody MOR208 (anti-CD19 human IgG1 Fc enhanced) (LC): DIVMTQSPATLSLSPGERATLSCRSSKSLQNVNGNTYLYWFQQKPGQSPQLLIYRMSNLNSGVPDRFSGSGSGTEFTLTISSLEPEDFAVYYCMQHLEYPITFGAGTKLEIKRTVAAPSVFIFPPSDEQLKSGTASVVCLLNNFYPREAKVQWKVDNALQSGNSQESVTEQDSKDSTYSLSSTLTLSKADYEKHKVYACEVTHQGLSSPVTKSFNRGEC
Chain of CD16A endogenously expressed on primary human NK cells (human) (P08637 17-254 limits assumed): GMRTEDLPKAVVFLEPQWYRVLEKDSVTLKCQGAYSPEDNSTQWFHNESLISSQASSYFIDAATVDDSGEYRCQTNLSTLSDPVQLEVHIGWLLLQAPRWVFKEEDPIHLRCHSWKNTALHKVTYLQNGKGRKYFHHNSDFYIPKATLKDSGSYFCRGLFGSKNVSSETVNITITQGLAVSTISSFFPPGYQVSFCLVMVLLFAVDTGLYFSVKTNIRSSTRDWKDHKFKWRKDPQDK
Chain of human CD16A-mFc (158F) (sAg_107) (human) (P08637 17-208 limits assumed): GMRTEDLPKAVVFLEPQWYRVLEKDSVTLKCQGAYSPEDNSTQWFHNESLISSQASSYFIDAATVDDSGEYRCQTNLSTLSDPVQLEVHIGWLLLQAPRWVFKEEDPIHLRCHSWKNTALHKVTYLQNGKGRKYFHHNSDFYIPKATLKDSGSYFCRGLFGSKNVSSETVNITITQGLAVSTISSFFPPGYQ
Chain of recombinant human FcγRIIA (CD32A), biotinylated (human) (P12318 34-218 limits assumed): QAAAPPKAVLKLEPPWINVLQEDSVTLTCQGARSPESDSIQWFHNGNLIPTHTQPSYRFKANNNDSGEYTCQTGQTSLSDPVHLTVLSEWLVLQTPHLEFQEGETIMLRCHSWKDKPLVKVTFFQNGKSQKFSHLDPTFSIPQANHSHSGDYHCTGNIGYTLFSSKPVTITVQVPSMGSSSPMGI
Chain of recombinant human FcγRIIC (CD32C), biotinylated (human) (P31995 43-223 limits assumed): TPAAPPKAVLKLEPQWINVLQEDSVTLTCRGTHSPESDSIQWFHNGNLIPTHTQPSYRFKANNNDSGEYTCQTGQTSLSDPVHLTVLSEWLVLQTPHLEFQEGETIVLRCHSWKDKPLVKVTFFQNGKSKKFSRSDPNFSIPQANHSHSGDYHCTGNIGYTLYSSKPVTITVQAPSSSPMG
Chain of recombinant murine FcγRIIB (CD32), biotinylated (murine) (P08101 30-207 limits assumed): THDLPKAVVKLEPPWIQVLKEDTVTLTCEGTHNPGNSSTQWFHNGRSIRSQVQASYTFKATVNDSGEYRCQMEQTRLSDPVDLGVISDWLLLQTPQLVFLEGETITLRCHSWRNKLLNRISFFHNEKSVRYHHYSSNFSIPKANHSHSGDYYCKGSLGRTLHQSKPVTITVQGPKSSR
Chain of recombinant human FcγRIIB (CD32B), biotinylated (human) (P31994 43-217 limits assumed): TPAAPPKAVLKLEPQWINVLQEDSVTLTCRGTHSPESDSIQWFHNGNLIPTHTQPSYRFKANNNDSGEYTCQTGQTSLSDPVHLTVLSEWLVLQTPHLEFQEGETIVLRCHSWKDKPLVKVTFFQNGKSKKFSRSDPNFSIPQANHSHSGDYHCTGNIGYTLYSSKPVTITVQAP

| Substance | Kd [1] [nM] | EC50 (read off the curve) [2] [nM] | Kd [3] [nM] | Kd [4] [nM] | EC50 (read off the curve) [5] [nM] | EC50 (read off the curve) [6] [nM] | Kd [7] [nM] | Kd [8] [nM] | Kd [9] [nM] | Kd [10] [nM] | Kd [11] [nM] | Kd [12] [nM] |
| --- | --- | --- | --- | --- | --- | --- | --- | --- | --- | --- | --- | --- |
| anti-human CD16 antibody clone 3G8 | 54.6 | 0.3 | 0.3 | 0.02 | 0.03 | 0.4 |  |  |  |  |  |  |
| control antibody MOR208 (anti-CD19 human IgG1 Fc enhanced) |  |  |  |  |  |  | 1750 | 223 | 474 | 821 | 263 | 351 |

— US20260070986A1
